Experimental data as given in US5733879A, “Peptides and proteins, process for their preparation and their use as cholesterol acceptors” (N.V. Innogenetics, S.A., priority 1992, dated 1998).
“Also recorded” adds a separate entry of the source. Where no end group is shown, it is not given here.

Experiments:
[1] = GdmCl denaturation followed by Trp maximal emission wavelength; assay type: physicochemical; conditions: phospholipid (DMPC) complex
Description: The stability of the DMPC-peptide complexes, was compared by following the maximal emission wavelength of the Trp residues after exposure to increasing quantities of GdmCl. For these experiments aliquots of a 8M GdmCl solution were added to the complex in the Tris-HCl buffer described above (see FIG. 3).

[2] = target: T1, semi-purified LCAT enzyme (Homo sapiens, UniProt P04180); assay: LCAT activation properties of the phospholipid-peptide complexes (HPLC of cholesteryl esters); assay type: biochemical; conditions: for Vmax compared with other complexes / apo AI-phospholipid complexes: Lineweaver-Burk plots; for Vmax (LCAT activation): PLPC/cholesterol/peptide discoidal complex as substrate, apparent kinetic constant, 37° C.; for kinetics of cholesterol esterification by LCAT (time course): discoidal complexes with PLPC and cholesterol, 0-24 h; for Vmax/Km A % of apo A1 (LCAT activation): relative to apo AI-phospholipid complex = 100
T1 construct: corresponds to the concentration relative to that in plasma by a factor of 5100, with the major contaminant being albumin; from tissue
T1 sequence (P04180 25-440): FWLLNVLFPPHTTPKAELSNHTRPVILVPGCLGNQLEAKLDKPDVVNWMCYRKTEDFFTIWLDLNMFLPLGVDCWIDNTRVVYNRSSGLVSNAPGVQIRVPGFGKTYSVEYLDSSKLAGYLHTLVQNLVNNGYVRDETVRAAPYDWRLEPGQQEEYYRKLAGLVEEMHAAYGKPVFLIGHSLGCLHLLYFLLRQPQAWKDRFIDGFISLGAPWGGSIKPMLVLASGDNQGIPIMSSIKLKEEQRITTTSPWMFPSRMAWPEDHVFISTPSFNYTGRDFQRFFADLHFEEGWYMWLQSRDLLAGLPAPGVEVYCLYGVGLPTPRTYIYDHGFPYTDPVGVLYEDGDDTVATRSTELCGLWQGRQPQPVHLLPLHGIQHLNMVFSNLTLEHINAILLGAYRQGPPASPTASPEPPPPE
Description: The activity of the LCAT enzyme with the various peptide-lipid complexes as substrates was determined by measuring the mount of cholesteryl esters generated during the enzymatic reaction by HPLC (Vercaemst et al., 1989).
The assay mixture consisted of variable mounts of complexes at cholesterol concentrations varying between 5 and 100 μM, 5 mg defatted bovine serum albumin (Sigma), 6 mM beta-mercaptoethanol in a reaction volume of 0.2 ml. After a preincubation of 20 min at 37° C., the enzymatic reaction was initiated by adding 3-6 μl of the semi-purified LCAT enzyme. The reaction was followed at 37° C. and was stopped by extraction of the incubation mixture with hexane-isopropanol 3:2, v/v. The solvent mixture contained either cholesteryl heptadecanoate (Sigma) or beta-sitosterol (Sigma) as internal standards for respectively cholesteryl esters and unesterified cholesterol quantification.
The unesterified cholesterol and the cholesteryl esters are identified and quantified by isocratic HPLC on a reversed-phase Zorbax ODS column, eluted with acetonitrile-isopropanol at a ratio of 90:10 v/v for unesterified cholesterol and of 50:50 v/v for cholesteryl esters. Detection was performed by measuring the UV absorbance at 205-210 nm. At a column temperature of 50° C. and with a flow-rate of 1.2 ml/min, the separation is completed within 25 min (Vercaemst et al., 1989). The sensitivity of this HPLC technique is similar to that of the conventional radioactive assay for polyunsaturated lecithin substrates (50 ng), and is about twice as low for saturated lecithins (80 ng).
The time course of cholesterol esterification by the LCAT enzyme with discoidal substrates consisting of PLPC, cholesterol, and the synthetic peptides, was followed between 0 and 24 h (Jonas, 1987). For the determination of the kinetic parameters, the initial velocities were determined in the linear portion of the curves, i.e. between 0-30% cholesteryl esters formation. The sample concentrations were in the range of 5×10^-7 to 5×10^-6 M with a constant enzyme volume of 5 μl, so that a linear production of cholesteryl esters formation was measured within 10 min at 37° C.
The initial kinetics (Vo) as a function of the apoprotein or peptide (C) concentrations were analyzed using a Lineweaver-Burk plot of 1/Vo versus 1/C. Linear regression analysis yielded the apparent kinetic parameters: Vmax, Km and Vmax/Km for each apoprotein or peptide-lipid complex. All kinetic experiments were performed at least three times and Vmax and Km values were expressed as mean ±error on the intercept and slope of the regression line.
The kinetics of the reaction of the semi-purified LCAT enzyme with discoidal complexes generated between the peptides, PLPC and cholesterol as substrate were followed between 0 and 24 h, and compared with those of the apo AI/PLPC/cholesterol complexes. The expression "semi-purified" corresponds to the concentration relative to that in plasma by a factor of 5100, with the major contaminant being albumin. The time course of the reaction, expressed as the percentage of esterified cholesterol as compared with the original substrate is shown on FIGS. 5a, 5b and 6 and in Table 2. […] After 24 h, more than 90% of the initial cholesterol present in all substrates was converted into cholesteryl esters (FIG. 5a).

[3] = Composition and gel chromatography of the isolated phospholipid-protein complexes; assay type: physicochemical; conditions: for Composition DPPC/Protein w/w: isolated complex with DPPC, maximum of elution peak
Description: Complexes were obtained by incubation of the peptides with dimyristoylphosphatidylcholine (DMPC, Sigma, St Louis, Mo.) vesicles at a DMPC/peptide, w/w ratio of 3/1 at 25° C. for 16 h. Complexes with dipalmitoylphosphatidylcholine (DPPC) were generated by the cholate dialysis procedure (Vanloo et al., 1991). All complexes were isolated by gel chromatography (FIG. 4) on a Superose PG column in a 0.01M Tris-HCl buffer, pH 8.0, 0.15M NaCl, 1 mM NaN3, 0.1 g/L EDTA. The column was first saturated with the phospholipid to avoid dissociation of the lipid-peptide complexes. The complexes were detected by continuous monitoring of the optical density at 280 nm and by measurement of the Trp emission of the fractions on a Jasco SP500 spectrofluorimeter. The composition and size of the complexes, were determined on the two fractions with maximal UV absorption in the elution peak of the complexes. The composition was determined by quantitation of the phospholipids using an enzymatic assay (Biomerieux, France), and of the peptide by an HPLC phenylalanine assay on a C18 reversed-phase column, after hydrolysis (Vanloo et al., 1991).

[4] = Electron microscopy size measurement of the lipid-peptide complexes; assay type: physicochemical; conditions: complex with DPPC, from electromicrographs
Description: Phospholipid-peptide complexes, at a protein concentration of 150 μg/ml, were negatively stained with a 20 g/l solution of potassium phosphotungstate (pH 7.4). 7 μl of the samples were applied to Formvar carbon-coated grids and examined in a Zeiss EM 10C transmission electron microscope operating at 60 kV. Particle size was determined by measuring 120 discrete particles for each sample. The mean diameter and the size distribution of the complexes were calculated.

[5] = Percentage of alpha-helix structure by circular dichroism; assay type: physicochemical; conditions: for percentage of alpha-helix structure, peptide, CD: free peptide; for percentage of alpha-helix structure, DMPC/peptide, CD: phospholipid-peptide (DMPC) complex
Description: Table 1: corresponds to the percentage of alpha-helix structure in the free peptide and in the phospholipid-peptide (DMPC) complexes as determined by infrared spectroscopy (IR) and circular dichroism (CD).
Circular dichroism spectra of the peptides and their complexes with lipids were measured on a Jasco 600 spectropolarimeter at 23° C. (Brasscur et at., 1991). Measurements were carried out at a protein concentration of 0.1 mg/ml in a 0.01M sodium phosphate buffer pH 7.4. Nine spectra were collected and averaged for each sample. The secondary structure was estimated according to the generalized inverse method of Compton and Johnson (Compton et at., 1986).

Substance	midpoint of the GdmCl denaturation, phospholipid complex [1]	Vmax compared with other complexes / apo AI-phospholipid complexes [2]	Vmax (LCAT activation) [2]	kinetics of cholesterol esterification by LCAT (time course) [2]	Composition DPPC/Protein w/w [3]	Diameter MEAN ± SD [4]	percentage of alpha-helix structure, peptide, CD [5]	percentage of alpha-helix structure, DMPC/peptide, CD [5]	Vmax/Km A % of apo A1 (LCAT activation) [2]	complex size on Superose PG column ([3]; DPPC complexes, cholate dialysis)	time at which plateau of esterification was reached ([2]; saturable kinetics)
EWLEAFYKKVLEKLKELF [M4]	2.5 M	two to three times lower	1.53 nmol CE/h	fastest kinetics	3/1	150 ± 25 Å	50%	65%	–	–	–
EWLKAEYEKVEEKLKELF [M3]	immediately	considerably lower	0.33 nmol CE/h	low rate of cholesterol esterification	4/1	175 ± 55 Å	–	–	10.7%	much larger	–
EWLKAEYEKVLEKLKELF [M2]	3 M	–	0.33 nmol CE/h	low rate of cholesterol esterification	2/1	173 ± 45 Å	30%	46%	3.3%	–	–
EWLKAFYKKVLEKLKELF [M1]	4 M	two to three times lower; also recorded: considerably lower	2.41 nmol CE/h	fastest kinetics	3/1	209 ± 33 Å	20%	46%	15.4%	–	–
apo AI: native plasma apo AI purified from human plasma; major apoprotein constituent of HDL	2.5 M	–	5.89 nmol CE/h	fastest kinetics	2/1	128 ± 22 Å	29%	47%	100.0%	–	2 to 4 h
